Read-outs that look alike come from different tables or passages of the source.
What was measured:
FCGR2A (167R) (CD32a) [1] = molecular target: FCGR2A (167R) (CD32a) (UniProt P12318)
[2] = molecular target: FCGR3A (176Phe/F158) (CD16a) (UniProt P08637)
FCGR1 (CD64) [3] = molecular target: FCGR1 (CD64) (UniProt P12314)
[4] = molecular target: FCGR3A (176Val/V158) (CD16a) (UniProt P08637)
FCGR2A (167H) (CD32a) [5] = molecular target: FCGR2A (167H) (CD32a) (UniProt P12318)
FcRn [6] = molecular target: FcRn (UniProt P55899)
Sequence of UniProt P55899 (P55899 24-297): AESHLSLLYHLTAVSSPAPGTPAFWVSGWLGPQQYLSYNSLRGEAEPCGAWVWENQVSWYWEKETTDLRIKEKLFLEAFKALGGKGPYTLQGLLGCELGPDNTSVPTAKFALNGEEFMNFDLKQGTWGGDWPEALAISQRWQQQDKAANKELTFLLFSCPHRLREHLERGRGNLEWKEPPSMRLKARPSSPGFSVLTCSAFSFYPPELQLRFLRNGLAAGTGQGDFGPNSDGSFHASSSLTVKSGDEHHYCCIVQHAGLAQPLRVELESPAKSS

[7] = molecular target: FCGR3A (176Val/V158) (CD16a) (UniProt P08637); remark: listed apart in the source
FCGR1 (CD64) [8] = molecular target: FCGR1 (CD64) (UniProt P12314); remark: listed apart in the source
FCGR2A (167R) (CD32a) [9] = molecular target: FCGR2A (167R) (CD32a) (UniProt P12318); remark: listed apart in the source
[10] = molecular target: FCGR3A (176Phe/F158) (CD16a) (UniProt P08637); remark: listed apart in the source
FCGR2A (167H) (CD32a) [11] = molecular target: FCGR2A (167H) (CD32a) (UniProt P12318); remark: listed apart in the source
FcRn [12] = molecular target: FcRn (UniProt P55899); remark: listed apart in the source

Sequence of UniProt P12314 (P12314 16-292): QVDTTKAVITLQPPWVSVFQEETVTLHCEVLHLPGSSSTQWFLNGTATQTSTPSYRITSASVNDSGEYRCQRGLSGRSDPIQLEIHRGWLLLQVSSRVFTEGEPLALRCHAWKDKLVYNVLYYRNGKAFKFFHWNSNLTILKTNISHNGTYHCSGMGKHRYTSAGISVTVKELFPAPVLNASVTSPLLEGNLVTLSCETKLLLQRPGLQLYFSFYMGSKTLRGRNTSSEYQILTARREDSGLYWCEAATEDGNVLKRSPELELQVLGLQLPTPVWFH

KVA12123 (YTE, hIgG1) (from UniProt P01857)
IC50 (FCGR2A (167R) (CD32a) [1]): 286 nM | IC50 [2]: 385 nM | IC50 (FCGR1 (CD64) [3]): 6 nM | IC50 [4]: 505 nM | IC50 (FCGR2A (167H) (CD32a) [5]): 137 nM | IC50 (FcRn [6]): 0.97 nM

KVA12.1 (WT, hIgG1) (from UniProt P01857)
IC50 [7]: 95.1 nM | IC50 (FCGR1 (CD64) [8]): 1.59 nM | IC50 (FCGR2A (167R) (CD32a) [9]): 67.3 nM | IC50 [10]: 53.3 nM | IC50 (FCGR2A (167H) (CD32a) [11]): 29.1 nM | IC50 (FcRn [12]): 5.2 nM
